Measured values as given in article PMC10261145, “Ceramide sensing by human SPT-ORMDL complex for establishing sphingolipid homeostasis” (Nature Communications, 2023).
Changes are numbered by the printed parent chain. Names may count otherwise.

T1: SPTLC1 (human, UniProt O15269 1-473)
T1 construct: serine palmitoyltransferase subunit SPTLC1, human, codon-optimized full-length cDNA; source: HEK293F, transiently co-transfected with the other subunits, purified as a complex (anti-Flag resin, SEC, GDN)
T1 sequence (looked up): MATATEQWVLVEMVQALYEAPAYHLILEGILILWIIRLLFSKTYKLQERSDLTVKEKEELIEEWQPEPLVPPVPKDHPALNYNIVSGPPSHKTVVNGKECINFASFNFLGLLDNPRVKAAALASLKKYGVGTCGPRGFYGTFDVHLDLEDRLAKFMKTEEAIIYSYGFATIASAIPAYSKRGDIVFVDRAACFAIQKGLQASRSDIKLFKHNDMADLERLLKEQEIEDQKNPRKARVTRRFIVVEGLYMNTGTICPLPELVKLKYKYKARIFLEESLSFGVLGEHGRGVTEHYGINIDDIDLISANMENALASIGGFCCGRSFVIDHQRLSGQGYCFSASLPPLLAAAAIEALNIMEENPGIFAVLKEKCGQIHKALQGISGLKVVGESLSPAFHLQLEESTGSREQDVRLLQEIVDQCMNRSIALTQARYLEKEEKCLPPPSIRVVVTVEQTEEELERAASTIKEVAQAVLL

T2: serine palmitoyltransferase (SPT) complex (SPTLC1, SPTLC2, SPTssa) (human, UniProt O15269 1-473; O15270 1-562; Q969W0 1-71)
T2 construct: SPTLC1, human, codon-optimized full-length cDNA; SPTLC2, human, codon-optimized full-length cDNA; SPTssa, human, codon-optimized full-length cDNA; Also purified alone, without ORMDLs; also called WT SPT complex; source: HEK293F, transiently co-transfected, purified (anti-Flag resin, SEC, GDN); copies: + +
T2 sequence (looked up) 1: T1 sequence (looked up)
T2 sequence (looked up) 2: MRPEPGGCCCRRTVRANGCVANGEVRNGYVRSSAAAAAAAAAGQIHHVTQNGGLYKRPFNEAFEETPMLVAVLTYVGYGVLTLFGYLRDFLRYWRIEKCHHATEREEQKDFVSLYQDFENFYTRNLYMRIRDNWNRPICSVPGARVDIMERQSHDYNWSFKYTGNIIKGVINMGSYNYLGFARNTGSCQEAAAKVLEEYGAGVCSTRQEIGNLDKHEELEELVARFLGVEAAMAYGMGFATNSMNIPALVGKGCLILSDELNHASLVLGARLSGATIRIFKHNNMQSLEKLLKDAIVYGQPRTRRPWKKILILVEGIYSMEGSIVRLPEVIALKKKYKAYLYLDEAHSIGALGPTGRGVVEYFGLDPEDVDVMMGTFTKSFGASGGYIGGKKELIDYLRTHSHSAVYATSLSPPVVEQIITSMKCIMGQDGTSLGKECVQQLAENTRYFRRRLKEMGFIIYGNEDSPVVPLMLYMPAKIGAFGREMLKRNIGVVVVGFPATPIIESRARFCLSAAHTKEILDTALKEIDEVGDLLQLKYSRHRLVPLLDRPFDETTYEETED
T2 sequence (looked up) 3: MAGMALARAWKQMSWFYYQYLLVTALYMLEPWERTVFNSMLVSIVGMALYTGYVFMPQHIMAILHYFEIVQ

T3: SPTLC2 (human, UniProt O15270 1-562)
T3 construct: serine palmitoyltransferase subunit SPTLC2, human, codon-optimized full-length cDNA; source: HEK293F, transiently co-transfected with the other subunits, purified as a complex (anti-Flag resin, SEC, GDN)
T3 sequence (looked up): T2 sequence (looked up) 2

B1: SPT-ORMDL3 complex (Homo sapiens) (protein)
chain 1: MNVGTAHSEVNPNTRVMNSRGIWLSYVLAIGLLHIVLLSIPFVSVPVVWTLTNLIHNMGMYIFLHTVKGTPFETPDQGKARLLTHWEQMDYGVQFTASRKFLTITPIVLYFLTSFYTKYDQIHFVLNTVSLMSVLIPKLPQLHGVRIFGINKY
chain 2: T2 sequence (looked up) 2
chain 3: T1 sequence (looked up)
notes: full-length subunits (ORMDL3-FL) co-expressed in HEK293F; N-terminal Flag tag on a subunit; purified in GDN; dimer of heterotetrameric protomers; with Serine palmitoyltransferase small subunit A
B2: SPT complex (Homo sapiens) (protein)
chain 1: T1 sequence (looked up)
chain 2: T2 sequence (looked up) 2
notes: core enzyme without ORMDL; full-length subunits co-expressed in HEK293F; N-terminal Flag tag on a subunit; purified in GDN; with Serine palmitoyltransferase small subunit A
B3: SPT-ORMDL3 complex (Homo sapiens; Q8N138:N13A) (protein)
chain 1: B1 chain 1 with N13A
chain 2: T2 sequence (looked up) 2
chain 3: T1 sequence (looked up)
notes: as for B1
B4: SPT-ORMDL3 (ORMDL3-ΔN17) (Homo sapiens) (protein)
chain 1: T1 sequence (looked up)
chain 2: T2 sequence (looked up) 2
notes: ORMDL3 lacking the N-terminal 16 residues (deletion 2-17, by analogy with the printed ΔN8 = 2-8); HEK293F; purified in GDN; with Serine palmitoyltransferase small subunit A; ORM1-like protein 3
B5: ORMDL3 (full-length, wild type) (natural protein, human, UniProt Q8N138 1-153, looked up)
chain: B1 chain 1
notes: ORMDL3, human, codon-optimized full-length cDNA in pCAG (new ORMDL3-FL plasmid without the 14 extra nucleotides upstream of the ORF); cDNAs were cloned 'with an N-terminal Flag tag or without a tag'; also called ORMDL3-FL; WT ORMDL3; source: HEK293F, transiently co-transfected with the SPT subunits, purified as a complex (anti-Flag resin, SEC, GDN)
B6: SPTssa (natural protein, human, UniProt Q969W0 1-71, looked up)
chain: T2 sequence (looked up) 3
notes: serine palmitoyltransferase small subunit A (SPTssa), human, codon-optimized full-length cDNA; also called small SPT subunit; source: HEK293F, transiently co-transfected with the other subunits, purified as a complex (anti-Flag resin, SEC, GDN)

Experiments:
SPT-ORMDL3 complex = molecular target: T4, SPT-ORMDL3 complex (Homo sapiens, UniProt O15269+O15270+Q8N138); assay: cryo-EM structure; LC-MS/MS of co-purified ceramides; type: binding; settings: endogenous co-purified lipid; C24-ceramide fitted to a ceramide-like density, chain length not uniquely defined
T4 construct: full-length subunits (ORMDL3-FL) co-expressed in HEK293F; N-terminal Flag tag on a subunit; purified in GDN; dimer of heterotetrameric protomers; with Serine palmitoyltransferase small subunit A

purified protein = substrate: N[C@@H](CO)C(=O)O; assay: purified protein; settings: 100 μM palmitoyl-CoA, 25 μM PLP, pH 7.5, 37 °C
[1] = substrate: CCCCCCCCCCCCCCCC(=O)SCCNC(=O)CCNC(=O)[C@H](O)C(C)(C)COP(=O)(O)OP(=O)(O)OC[C@H]1O[C@@H](n2cnc3c(N)ncnc32)[C@H](O)[C@@H]1OP(=O)(O)O; assay: DTNB CoA-release assay; allosteric sigmoidal fit; type: biochemical, Homo sapiens; settings: 10 mM L-serine, 25 μM PLP, pH 7.5, 37 °C
Excerpt: DTNB CoA-release assay; allosteric sigmoidal fit on SPT-ORMDL3 complex | increased Khalf for palmitoyl-CoA in the ORMDL3-containing complex (Fig. 1e)

[2] = substrate: CCCCCCCCCCCCCCCC(=O)SCCNC(=O)CCNC(=O)[C@H](O)C(C)(C)COP(=O)(O)OP(=O)(O)OC[C@H]1O[C@@H](n2cnc3c(N)ncnc32)[C@H](O)[C@@H]1OP(=O)(O)O; assay: DTNB CoA-release assay; allosteric sigmoidal fit; type: biochemical, Homo sapiens; settings: 10 mM L-serine, 25 μM PLP, pH 7.5, 37 °C; remark: listed apart in the source
Excerpt: DTNB CoA-release assay; allosteric sigmoidal fit on SPT complex | SPT activity versus palmitoyl-CoA concentration for SPT and SPT-ORMDL3 complex

[3] = substrate: CCCCCCCCCCCCCCCC(=O)SCCNC(=O)CCNC(=O)[C@H](O)C(C)(C)COP(=O)(O)OP(=O)(O)OC[C@H]1O[C@@H](n2cnc3c(N)ncnc32)[C@H](O)[C@@H]1OP(=O)(O)O; assay: DTNB CoA-release assay; allosteric sigmoidal fit; type: biochemical, Homo sapiens; settings: 10 mM L-serine, 25 μM PLP, pH 7.5, 37 °C; remark: listed apart in the source
Excerpt: DTNB CoA-release assay; allosteric sigmoidal fit on SPT-ORMDL3 complex | Khalf value of this variant toward palmitoyl-CoA was nearly two times as high

[4] = substrate: CCCCCCCCCCCCCCCC(=O)SCCNC(=O)CCNC(=O)[C@H](O)C(C)(C)COP(=O)(O)OP(=O)(O)OC[C@H]1O[C@@H](n2cnc3c(N)ncnc32)[C@H](O)[C@@H]1OP(=O)(O)O; assay: DTNB CoA-release assay; allosteric sigmoidal fit; type: biochemical, Homo sapiens; settings: 10 mM L-serine, 25 μM PLP, pH 7.5, 37 °C; remark: listed apart in the source
SPTLC1 = molecular target: T1, SPTLC1; assay: cryo-EM structure; single-particle cryo-EM of co-expressed and co-purified SPT-ORMDL3 complexes at ~18 mg/ml in 25 mM HEPES pH 7.5, 150 mM NaCl, 0.01% GDN; apo, or WT preincubated with 1 mM C6-ceramide on ice for 1 hr; settings: both partners purified
[5] = molecular target: T2, serine palmitoyltransferase (SPT) …; assay: as above; settings: both partners purified
SPTLC2 = molecular target: T3, SPTLC2; assay: as above; settings: both partners purified
[6] = molecular target: B5; assay: as above; settings: both partners purified

Molecule: CCCCCCCCCCCCC/C=C/[C@@H](O)[C@H](CO)NC(=O)CCCCCCCCCCCCCCCCCCCCCCC [C24-ceramide]
cryo-EM structure; LC-MS/MS of co-purified ceramides (SPT-ORMDL3 complex): ceramide-like density in the apo SPT-ORMDL3 structure, which could be better fitted with C24-ceramide

Molecule: B1
Km (purified protein): 1140 ± 70 µM
K0.5 [1]: 26.85 ± 2.18 µM

Molecule: B2
Km (purified protein): 1580 ± 130 µM
K0.5 [2]: 4.47 ± 0.31 µM

Molecule: B3
K0.5 [3]: 8.05 ± 1.20 µM

Molecule: B4
K0.5 [4]: 2.51 ± 0.33 µM

Molecule: B5
binding result (SPTLC1): binds
binding result [5]: binds
binding result (SPTLC2): binds

Molecule: B6
binding result [6]: binds
